According to the supplement of paper PMC9112550, “Optimization of the antimicrobial peptide Bac7 by deep mutational scanning” (BMC Biology, 2022):

Tested on: Escherichia coli TOP10
Test: shrunken log2 fold change of peptide-encoding DNA abundance (4.5 h post-induction vs induction); higher = less antimicrobial activity (less host growth inhibition)
Conditions: time post-induction: 4.5 h; library: site-saturation at positions 5, 18, 19, 20
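Also: peptides expressed intracellularly from a pBAD plasmid library in pooled LB shake-flask culture, induced with 0.3% L-arabinose, DNA abundance read by NGS, three biological replicates, DESeq2 with apeglm shrinkage.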

| Sequence | shrunken log2 fold change |
| --- | --- |
| RRIRFRPPRLPRPRPRPINDPRP | -0.241 |
| RRIRCRPPRLPRPRPRPWYNPRP | -1.45 |
| RRIRRRPPRLPRPRPRPLAAPRP | 0.874 |
| RRIRFRPPRLPRPRPRPHAMPRP | 0.203 |
| RRIRARPPRLPRPRPRPDSAPRP | 0.608 |
| RRIRCRPPRLPRPRPRPGMDPRP | -0.0572 |
| RRIRERPPRLPRPRPRPCNWPRP | -0.0685 |
| RRIRPRPPRLPRPRPRPRQIPRP | -0.0965 |
| RRIRARPPRLPRPRPRPWTIPRP | -0.0653 |
| RRIRFRPPRLPRPRPRPEWTPRP | 0.155 |
| RRIRARPPRLPRPRPRPIYCPRP | 0.241 |
| RRIRARPPRLPRPRPRPIINPRP | -0.174 |
| RRIRIRPPRLPRPRPRPQPHPRP | -0.00842 |
| RRIRRRPPRLPRPRPRPEQMPRP | 0.19 |
| RRIRIRPPRLPRPRPRPKLQPRP | 0.173 |
| RRIRDRPPRLPRPRPRPAMTPRP | 0.812 |
| RRIRTRPPRLPRPRPRPICTPRP | 0.409 |
| RRIRPRPPRLPRPRPRPAKHPRP | -0.023 |
| RRIRSRPPRLPRPRPRPHFPPRP | -0.397 |
| RRIRLRPPRLPRPRPRPWTTPRP | -0.206 |
| RRIRKRPPRLPRPRPRPDYAPRP | 0.102 |
| RRIRMRPPRLPRPRPRPNGWPRP | 0.175 |
| RRIRIRPPRLPRPRPRPNFKPRP | -0.144 |
| RRIRVRPPRLPRPRPRPQYNPRP | -0.851 |
| RRIRTRPPRLPRPRPRPNHFPRP | -0.316 |

| Sequence | shrunken log2 fold change |
| --- | --- |
| RRIRCRPPRLPRPRPRPKVEPRP | 0.345 |
| RRIRARPPRLPRPRPRPYRRPRP | -0.174 |
| RRIRQRPPRLPRPRPRPPQAPRP | 0.718 |
| RRIRCRPPRLPRPRPRPFHYPRP | -2.22e-05 |
| RRIRSRPPRLPRPRPRPGEEPRP | 0.499 |
| RRIRKRPPRLPRPRPRPGMYPRP | 0.102 |
| RRIRNRPPRLPRPRPRPTPLPRP | 0.268 |
| RRIRQRPPRLPRPRPRPRMRPRP | 0.583 |
| RRIRMRPPRLPRPRPRPDNQPRP | 0.0198 |
| RRIRYRPPRLPRPRPRPDKIPRP | -0.155 |
| RRIRYRPPRLPRPRPRPKLNPRP | -0.689 |
| RRIRTRPPRLPRPRPRPIAGPRP | -0.16 |
| RRIRQRPPRLPRPRPRPSMNPRP | -0.568 |
| RRIRPRPPRLPRPRPRPSWQPRP | -0.0441 |
| RRIRFRPPRLPRPRPRPMRFPRP | -0.0257 |
| RRIRCRPPRLPRPRPRPSKCPRP | -0.266 |
| RRIRSRPPRLPRPRPRPESLPRP | 0.0154 |
| RRIRWRPPRLPRPRPRPVPEPRP | 0.634 |
| RRIRFRPPRLPRPRPRPQLIPRP | -0.313 |
| RRIRQRPPRLPRPRPRPWELPRP | 0.0585 |
| RRIRKRPPRLPRPRPRPSTFPRP | -0.00863 |
| RRIRFRPPRLPRPRPRPVTEPRP | -0.0132 |
| RRIRARPPRLPRPRPRPVHWPRP | 0.579 |
| RRIRPRPPRLPRPRPRPDETPRP | -0.088 |
| RRIRMRPPRLPRPRPRPRYFPRP | 0.0308 |

| Sequence | shrunken log2 fold change |
| --- | --- |
| RRIRSRPPRLPRPRPRPHRGPRP | -0.128 |
| RRIRQRPPRLPRPRPRPKSIPRP | -0.695 |
| RRIRQRPPRLPRPRPRPVCDPRP | 0.0934 |
| RRIRPRPPRLPRPRPRPYNKPRP | -1.16 |
| RRIRTRPPRLPRPRPRPKPTPRP | 0.0943 |
| RRIRWRPPRLPRPRPRPTQEPRP | 0.0333 |
| RRIRIRPPRLPRPRPRPAHCPRP | 0.0837 |
| RRIRCRPPRLPRPRPRPLNEPRP | -0.0566 |
| RRIRNRPPRLPRPRPRPGCFPRP | 0.126 |
| RRIRIRPPRLPRPRPRPPGVPRP | 0.408 |
| RRIRWRPPRLPRPRPRPRILPRP | 0.188 |
| RRIRHRPPRLPRPRPRPRSGPRP | -0.0415 |
| RRIRRRPPRLPRPRPRPEMEPRP | 0.0355 |
| RRIRLRPPRLPRPRPRPTENPRP | -0.171 |
| RRIRCRPPRLPRPRPRPPTTPRP | 0.353 |
| RRIRTRPPRLPRPRPRPDHPPRP | -0.224 |
| RRIRYRPPRLPRPRPRPRVFPRP | -0.167 |
| RRIRDRPPRLPRPRPRPLLNPRP | 0.124 |
| RRIRSRPPRLPRPRPRPEEPPRP | 0.729 |
| RRIRGRPPRLPRPRPRPEDWPRP | 1.45 |
| RRIRTRPPRLPRPRPRPENWPRP | 0.157 |
| RRIRARPPRLPRPRPRPQSDPRP | 0.0175 |
| RRIRCRPPRLPRPRPRPSWDPRP | -0.134 |
| RRIRRRPPRLPRPRPRPFSWPRP | -0.469 |
| RRIRMRPPRLPRPRPRPQCSPRP | 0.113 |

| Sequence | shrunken log2 fold change |
| --- | --- |
| RRIRIRPPRLPRPRPRPPAWPRP | 0.146 |
| RRIRTRPPRLPRPRPRPADNPRP | -0.294 |
| RRIRPRPPRLPRPRPRPFFHPRP | -0.229 |
| RRIRFRPPRLPRPRPRPKWVPRP | -0.193 |
| RRIRGRPPRLPRPRPRPMGYPRP | 0.111 |
| RRIRGRPPRLPRPRPRPQTGPRP | 0.162 |
| RRIRSRPPRLPRPRPRPLVGPRP | 0.0355 |
| RRIRLRPPRLPRPRPRPWVSPRP | 0.442 |
| RRIRGRPPRLPRPRPRPCGMPRP | 0.0775 |
| RRIRSRPPRLPRPRPRPNGMPRP | -0.0245 |
| RRIRLRPPRLPRPRPRPFLWPRP | -0.314 |
| RRIRFRPPRLPRPRPRPLGDPRP | 0.4 |
| RRIRGRPPRLPRPRPRPKSEPRP | 0.9 |
| RRIRARPPRLPRPRPRPMPFPRP | 0.263 |
| RRIRGRPPRLPRPRPRPKQCPRP | 0.103 |
| RRIRCRPPRLPRPRPRPWFEPRP | -0.45 |
| RRIRYRPPRLPRPRPRPSVEPRP | -0.481 |
| RRIRIRPPRLPRPRPRPFQAPRP | -0.0938 |
| RRIRWRPPRLPRPRPRPAASPRP | 0.404 |
| RRIRTRPPRLPRPRPRPMVMPRP | -0.0384 |
| RRIRQRPPRLPRPRPRPKAIPRP | 0.0432 |
| RRIRNRPPRLPRPRPRPQFYPRP | -0.475 |
| RRIRPRPPRLPRPRPRPYGKPRP | -0.307 |
| RRIRVRPPRLPRPRPRPGAFPRP | 0.0224 |
| RRIRTRPPRLPRPRPRPDKKPRP | -0.0143 |

| Sequence | shrunken log2 fold change |
| --- | --- |
| RRIRNRPPRLPRPRPRPKAKPRP | 0.146 |
| RRIRDRPPRLPRPRPRPRSSPRP | -0.0289 |
| RRIRNRPPRLPRPRPRPANIPRP | -0.0793 |
| RRIRTRPPRLPRPRPRPQAGPRP | 0.107 |
| RRIRWRPPRLPRPRPRPLALPRP | 0.362 |
| RRIRRRPPRLPRPRPRPGIQPRP | 0.0906 |
| RRIRDRPPRLPRPRPRPVQLPRP | 0.0283 |
| RRIRKRPPRLPRPRPRPPRAPRP | 1.15 |
| RRIRDRPPRLPRPRPRPYKCPRP | -0.00925 |
| RRIRSRPPRLPRPRPRPQTYPRP | -0.16 |
| RRIRFRPPRLPRPRPRPPFSPRP | -0.0847 |
| RRIRYRPPRLPRPRPRPDTGPRP | -0.808 |
| RRIRWRPPRLPRPRPRPTAMPRP | 0.814 |
| RRIRQRPPRLPRPRPRPEQRPRP | 0.0426 |
| RRIRCRPPRLPRPRPRPNTQPRP | -0.0903 |
| RRIRSRPPRLPRPRPRPAQTPRP | 0.0615 |
| RRIRQRPPRLPRPRPRPGKHPRP | 0.0941 |
| RRIRNRPPRLPRPRPRPHSAPRP | -0.0468 |
| RRIRYRPPRLPRPRPRPENPPRP | -0.382 |
| RRIRMRPPRLPRPRPRPYYSPRP | -0.0674 |
| RRIRHRPPRLPRPRPRPVLLPRP | -0.0673 |
| RRIRWRPPRLPRPRPRPWRMPRP | -0.182 |
| RRIRHRPPRLPRPRPRPDKWPRP | -0.395 |
| RRIRTRPPRLPRPRPRPFSCPRP | -0.0158 |
| RRIRNRPPRLPRPRPRPCCCPRP | -0.0783 |
